Where “and” joins values, the source holds several entries; their conditions need not be identical. Equal entries are not always repeated.

The target of assay [1] is T1, recombinant cynomolgus CLL-1 extracellular domain (ECD, amino acids 65-265) fused to an N-terminal Flag (cynomolgus monkey).
T1 construct: Construct stated for the immunogen; also called CynoCLL-1 Flag; cynoCLL-1
T1 chain: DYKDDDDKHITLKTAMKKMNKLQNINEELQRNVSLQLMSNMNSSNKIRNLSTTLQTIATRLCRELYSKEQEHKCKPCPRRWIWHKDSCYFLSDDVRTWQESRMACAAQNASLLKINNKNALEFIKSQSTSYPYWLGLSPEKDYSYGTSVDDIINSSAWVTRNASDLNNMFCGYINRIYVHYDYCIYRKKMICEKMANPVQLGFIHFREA
Briefly: SPR (Biacore), chimeric IgG captured by anti-human IgG, CLL-1 as analyte. The protocol:
(§1) The chimeric anti-CLL-1 human IgG were captured by mouse anti-human IgG coated on the CM5 sensor chip. […] Association rates (kon) and dissociation rates (koff) were calculated using a simple one-to-one Langmuir binding model. The equilibrium dissociation constant (KD) was calculated as the ratio koff/kon.
In general terms: SPR reads the build-up and loss of mass on a sensor chip optically.

In assay [2] the target is T2, recombinant human CLL-1 extracellular domain (ECD, amino acids 65-265) fused to an N-terminal Flag (human, UniProt Q5QGZ9 65-265).
T2 construct: The construct and the K244Q SNP are stated for the immunogen; they are not written as a piece; also called huCLL-1-Flag; huCLL-1
T2 chain: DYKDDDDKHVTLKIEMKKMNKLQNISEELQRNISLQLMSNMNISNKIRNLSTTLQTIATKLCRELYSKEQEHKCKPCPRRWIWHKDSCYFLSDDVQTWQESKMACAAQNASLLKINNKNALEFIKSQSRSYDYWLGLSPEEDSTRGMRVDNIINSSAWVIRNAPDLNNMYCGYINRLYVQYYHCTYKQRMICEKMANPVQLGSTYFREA
The description is as above. The protocol: as §1

For assay [3], the target named is T1, recombinant cynomolgus CLL-1 …. As to the kind of experiment: affinity column of the TDB summary table (rounded Biacore KD of the second the 8th table / the 4th table tables).
For assay [4], the target named is T2, recombinant human CLL-1 extracellular …. The assay is described as above.
Assay [5] addresses T3, human CLL-1 on cells (endogenous on HL-60, EOL-1 and other AML cell lines and CD14+ monocytes); recombinant on … (human, UniProt Q5QGZ9 1-265).
T3 sequence: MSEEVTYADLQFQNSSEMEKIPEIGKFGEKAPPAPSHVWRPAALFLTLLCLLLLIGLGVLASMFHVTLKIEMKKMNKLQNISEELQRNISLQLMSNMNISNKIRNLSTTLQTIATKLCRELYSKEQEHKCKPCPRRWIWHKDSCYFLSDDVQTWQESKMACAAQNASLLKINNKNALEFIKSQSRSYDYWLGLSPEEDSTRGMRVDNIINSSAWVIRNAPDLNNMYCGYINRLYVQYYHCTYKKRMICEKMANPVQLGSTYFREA
As to the kind of experiment: cell-based or functional assay.

Assay [6] concerns the target T3, human CLL-1 on cells (endogenous on …). As to the kind of experiment: cell-based or functional assay. This is another data set of the same source.
For assay [7] the target is unchanged. As to the kind of experiment: cell-based or functional assay. This is another data set of the same source.
Assay [8] has the same target. Briefly: Scatchard, HL-60 cells. The protocol:
Competition assay mixtures of 50 μL volume containing a fixed concentration of [1¹²⁵] labeled antibody and decreasing concentrations of serially diluted, unlabeled antibody were placed into 96-well plates. HEK293AD cells stably expressing recombinant hu or cynoCLL-1 or HL-60 tumor cells expressing endogenous CLL-1 were cultured in growth media at 37° C. in 5% CO₂. Cells were detached from the flask using Sigma Cell Dissociation Solution and were washed with binding buffer, which consisted of Dulbecco's Modified Eagle Medium (DMEM) with 1% bovine serum albumin (BSA), […] and 0.1% sodium azide. The washed cells were added to the 96 well plates at a density of 100,000 cells in 0.2 mL of binding buffer. […] The final concentration of the unlabeled antibody in the competition assay ranged from 1000 nM through ten 2-fold dilution steps to a 0 nM buffer-only assay. Competition assays were carried out in triplicate. Competition assays were incubated for 2 hours at room temperature. […] The filters were counted on a Wallac Wizard 1470 gamma counter (PerkinElmer Life and Analytical Sciences Inc.; Wellesley, Mass.). The binding data was evaluated using NewLigand software (Genentech), which uses the fitting algorithm of Munson and Robard to determine the binding affinity of the antibody (Munson and Robard 1980).

Assay [9] has the same target. As to the kind of experiment: Scatchard, EOL-1 cells.
Assay [10] has the same target. As to the kind of experiment: Scatchard, 293AD/huCLL-1 cells. The protocol: Competition assay mixtures of 50 μL volume containing a fixed concentration of [1¹²⁵] labeled antibody and decreasing concentrations of serially diluted, unlabeled antibody were placed into 96-well plates. HEK293AD cells stably expressing recombinant hu or cynoCLL-1 or HL-60 tumor cells expressing endogenous CLL-1 were cultured in growth media at 37° C. in 5% CO₂. Cells were detached from the flask using Sigma Cell Dissociation Solution and were washed with binding buffer, which consisted of Dulbecco's Modified Eagle Medium (DMEM) with 1% bovine serum albumin (BSA), […] and 0.1% sodium azide. The washed cells were added to the 96 well plates at a density of 100,000 cells in 0.2 mL of binding buffer. […] The final concentration of the unlabeled antibody in the competition assay ranged from 1000 nM through ten 2-fold dilution steps to a 0 nM buffer-only assay. Competition assays were carried out in triplicate. Competition assays were incubated for 2 hours at room temperature. After the 2-hour incubation, the competition assays were transferred to a Millipore Multiscreen filter plate (Billerica, Mass.) and washed 4 times with binding buffer to separate the free from bound [I¹²⁵] labeled antibody. The filters were counted on a Wallac Wizard 1470 gamma counter (PerkinElmer Life and Analytical Sciences Inc.; Wellesley, Mass.). The binding data was evaluated using NewLigand software (Genentech), which uses the fitting algorithm of Munson and Robard to determine the binding affinity of the antibody (Munson and Robard 1980).

In assay [11] the target is T1, recombinant cynomolgus CLL-1 …. Briefly: SPR (Biacore T200), IgG captured by anti-human Fc, CLL-1 as analyte.
The target in assay [12] is T2, recombinant human CLL-1 extracellular …. The assay is described as above.
Assay [13] concerns the target T1, recombinant cynomolgus CLL-1 …. The assay is described as above.
Assay [14] has as its target T2, recombinant human CLL-1 extracellular …. The description is as above.

B1: ch28H12 (antibody, V domains shown)
VH: QVQLQQSGAELVKPGASVKLSCTASGFNIKDTYMHWVKQRPEQGLEWIGRIDPANGDTDYDPKFQGKATVTADTSSNTAYLQLSSLTSEDTAVYYCTISGPPYYVMDYWGQGTSVTVSS
VL: DIQMTQSPASLAVSLGQRATISCRASQSVSSSSYSYMHWYQQKPGQPPKLLIKYASNLESGVPARFSGRGSGTDFTLNIHPVEEEDTATYYCQHSWEIPYTFGGGTRLEIK
notes: chimeric version of m28H12, human IgG; also called chimeric 28H12
Regarding B1, the Kd in assay [1] is 0.3 nM; in assay [2], 18 nM; in assay [3], 0.3 nM; in assay [4] it was 18 nM. Besides, the koff came to 0.00023 s⁻¹ in assay [1] and 0.0095 s⁻¹ in assay [2]. The kon in assay [1] came out at 670000 M⁻¹ s⁻¹; in assay [2] it was 500000 M⁻¹ s⁻¹.

B2: ch20B1 (antibody, V domains shown)
VH: EVQLQQSGPELVKPGALVKISCKASGYTFTSYDINWLKQRPGQGLEWIGWIYPGDGTTEYNERFKGKATLTADKSSSTAYLQLSSLTSENSAVYFCARSYDYDYAMDYWGQGTSVTVSS
VL: DIVLTQSPAIMSASPGEKVTMTCSASSSISYMYWYQQKPGTSPKRWIYDTSKLASGVPARFSGSGSGTSYSLTISSMEAEDAATYYCHQRSSWTFGGGTKLEIK
notes: chimeric version of m20B1, human IgG; also called chimeric 20B1; 2061 [sic]
On to B2, for which the Kd stood at 6.1 nM in assay [1], 4.5 nM in assay [2], 6.1 nM in assay [3] and 4.5 nM in assay [4]. Besides, the values for the koff in [1] and in assay [2] were 0.0012 s⁻¹ and 0.001 s⁻¹, respectively. The kon is 190000 M⁻¹ s⁻¹ in [1] and 220000 M⁻¹ s⁻¹ in assay [2].

B3: h6E7 (6E7.L4H1e)×38E4v1 TDB (bispecific antibody, V domains shown)
VH 1: EVQLVQSGAEVKKPGASVKVSCKASGYSFTDYYMHWVRQAPGQGLEWIGRINPYNGAAFYSQNFKDRVTLTVDTSTSTAYLELSSLRSEDTAVYYCAIERGADLEGYAMDYWGQGTLVTVSS
VL 1: DIQMTQSPSSLSASVGDRVTITCRASQSVSTSSYNYMHWYQQKPGKPPKLLIKYASNLESGVPSRFSGSGSGTDFTLTISSLQPEDFATYYCQHSWEIPLTFGQGTKVEIK
VH 2: EVQLVQSGAEVKKPGASVKVSCKASGFTFTSYYIHWVRQAPGQGLEWIGWIYPENDNTKYNEKFKDRVTITADTSTSTAYLELSSLRSEDTAVYYCARDGYSRYYFDYWGQGTLVTVSS
VL 2: DIVMTQSPDSLAVSLGERATINCKSSQSLLNSRTRKNYLAWYQQKPGQSPKLLIYWTSTRKSGVPDRFSGSGSGTDFTLTISSLQAEDVAVYYCKQSFILRTFGQGTKVEIK
B3: in assay [5], the “EC50 for killing target cells (EOL-1)” value was determined as 9.1 ng/mL, the “EC50 for killing target cells (THP-1)” value stood at 5.4 ng/mL, the “EC50 of killing of EOL-1 (other donors)” value was 7.4 ng/mL and the “EC50 of killing of EOL-1 target cells by cynomolgus pan-T cells” value was roughly 5 ng/mL. The “EC50 of killing of HL-60 (other donors)” value in assay [5] worked out at 95.6 ng/mL. Also, in assay [6], the “average killing EC50, EOL-1 (n = 5)” value amounted to 4.1 ng/mL; the “average killing EC50, HL-60 (n = 2)” value worked out at 104 ng/mL; the “average killing EC50, ML-2” value came to 2.5 ng/mL; the “average killing EC50, Molm-13 (lowest expressor of CLL-1)” value turned out to be 23 ng/mL. In addition, in assay [6], the “average killing EC50, NOMO-1” value was 12.2 ng/mL; the “average killing EC50, PL-21” value was found to be 5.9 ng/mL; the “average killing EC50, THP-1 (n = 3)” value was found to be 3.6 ng/mL; the “average killing EC50, U937” value was 2.1 ng/mL. Besides, the “average killing EC50, human autologous CD14+ (n = 3)” value in assay [6] came to 2.8 ng/ml. Also, the “Cell killing EC50 (EOL-1 cells, human CD8+ T cells)” value in [7] was 14 ng/mL.

B4: 6E7.L4H1e (antibody, V domains shown)
VH: EVQLVQSGAEVKKPGASVKVSCKASGYSFTDYYMHWVRQAPGQGLEWIGRINPYNGAAFYSQNFKDRVTLTVDTSTSTAYLELSSLRSEDTAVYYCAIERGADLEGYAMDYWGQGTLVTVSS
VL: DIQMTQSPSSLSASVGDRVTITCRASQSVSTSSYNYMHWYQQKPGKPPKLLIKYASNLESGVPSRFSGSGSGTDFTLTISSLQPEDFATYYCQHSWEIPLTFGQGTKVEIK
notes: humanized, assessed in the form of an IgG; also called humanized 6E7.L4H1e; h6E7
With B4, the Kd in assay [8] is 0.6 nM and 0.34 nM; in [9], 0.25 nM and 0.29 nM; in [10] it was 0.68 nM and 0.35 nM; in [11], 0.317 nM; in assay [12], 0.622 nM; in assay [13], 2.26 nM. The results for the Kd in assay [14], in [3] and in assay [4] were 1.08 nM, 2.2 nM and 1.1 nM, respectively. Also, the koff in assay [11] was 0.000234 s⁻¹; in assay [12] it was 0.000512 s⁻¹; in assay [13], 0.00181 s⁻¹; in assay [14], 0.000984 s⁻¹. Further, the kon came out at 739000 M⁻¹ s⁻¹ in [11], 824000 M⁻¹ s⁻¹ in [12], 804000 M⁻¹ s⁻¹ in assay [13] and 910000 M⁻¹ s⁻¹ in [14].

B5: 6E7.L4H1eD54 (antibody, V domains shown)
VH: EVQLVQSGAEVKKPGASVKVSCKASGYSFTDYYMHWVRQAPGQGLEWIGRINPYDGAAFYSQNFKDRVTLTVDTSTSTAYLELSSLRSEDTAVYYCAIERGADLEGYAMDYWGQGTLVTVSS
VL: DIQMTQSPSSLSASVGDRVTITCRASQSVSTSSYNYMHWYQQKPGKPPKLLIKYASNLESGVPSRFSGSGSGTDFTLTISSLQPEDFATYYCQHSWEIPLTFGQGTKVEIK
notes: IgG; also called h6E7D; H6E7.L4H1D54
Regarding B5, the Kd in assay [13] stood at 48.7 nM; in [14] it was 113 nM; in [3], 48.7 nM; in assay [4], 113 nM. In addition, the koff in assay [13] amounted to 0.00869 s⁻¹; in assay [14], 0.0344 s⁻¹. Also, the kon turned out to be 178000 M⁻¹ s⁻¹ in [13] and 304000 M⁻¹ s⁻¹ in assay [14].

What is called Kd is the equilibrium constant for the complex coming apart. As a reminder, the koff is the first-order rate constant of dissociation. What is called kon is the second-order rate constant of association.

Source of the values: US20200148774A1 (Genentech, published 2020).
